T1: CD39 mutant 19 (R138A, M139A, E142K) (human, UniProt P49961 1-510)
T1 construct: Transfected in HEK293T cells
T1 chain: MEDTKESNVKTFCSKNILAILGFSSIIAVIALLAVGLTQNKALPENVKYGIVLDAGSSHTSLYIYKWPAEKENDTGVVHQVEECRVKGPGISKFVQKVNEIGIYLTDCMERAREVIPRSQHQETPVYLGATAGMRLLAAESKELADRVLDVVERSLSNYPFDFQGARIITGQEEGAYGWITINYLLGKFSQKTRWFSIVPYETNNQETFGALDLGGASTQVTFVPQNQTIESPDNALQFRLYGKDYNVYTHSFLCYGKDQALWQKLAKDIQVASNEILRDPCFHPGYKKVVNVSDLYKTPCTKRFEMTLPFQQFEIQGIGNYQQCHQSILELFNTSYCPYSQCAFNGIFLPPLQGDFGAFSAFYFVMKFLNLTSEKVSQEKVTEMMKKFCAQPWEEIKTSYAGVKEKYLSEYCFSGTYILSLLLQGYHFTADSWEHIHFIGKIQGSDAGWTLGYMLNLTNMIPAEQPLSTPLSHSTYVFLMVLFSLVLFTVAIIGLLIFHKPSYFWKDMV

T2: CD39 mutant 5 (Q96A, N99A, E143A, R147E) (human, UniProt P49961 1-510)
T2 construct: Transfected in HEK293T cells
T2 chain: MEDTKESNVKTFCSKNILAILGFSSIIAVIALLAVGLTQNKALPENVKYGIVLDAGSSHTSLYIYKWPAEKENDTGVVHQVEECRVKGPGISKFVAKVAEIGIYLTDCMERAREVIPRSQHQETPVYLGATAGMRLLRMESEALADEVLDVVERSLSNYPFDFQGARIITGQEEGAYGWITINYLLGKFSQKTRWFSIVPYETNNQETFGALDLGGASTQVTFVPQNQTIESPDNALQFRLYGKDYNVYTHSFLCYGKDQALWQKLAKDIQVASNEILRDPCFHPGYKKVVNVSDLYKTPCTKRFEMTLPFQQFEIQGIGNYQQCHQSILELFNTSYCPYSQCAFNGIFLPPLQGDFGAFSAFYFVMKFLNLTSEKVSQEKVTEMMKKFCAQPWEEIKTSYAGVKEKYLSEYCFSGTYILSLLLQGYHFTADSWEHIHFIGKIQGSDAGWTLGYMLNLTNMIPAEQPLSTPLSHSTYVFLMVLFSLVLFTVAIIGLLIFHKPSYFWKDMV

T3: CD39 mutant 2B (E110A, R113T, E114A) (human, UniProt P49961 1-510)
T3 construct: Transfected in HEK293T cells
T3 chain: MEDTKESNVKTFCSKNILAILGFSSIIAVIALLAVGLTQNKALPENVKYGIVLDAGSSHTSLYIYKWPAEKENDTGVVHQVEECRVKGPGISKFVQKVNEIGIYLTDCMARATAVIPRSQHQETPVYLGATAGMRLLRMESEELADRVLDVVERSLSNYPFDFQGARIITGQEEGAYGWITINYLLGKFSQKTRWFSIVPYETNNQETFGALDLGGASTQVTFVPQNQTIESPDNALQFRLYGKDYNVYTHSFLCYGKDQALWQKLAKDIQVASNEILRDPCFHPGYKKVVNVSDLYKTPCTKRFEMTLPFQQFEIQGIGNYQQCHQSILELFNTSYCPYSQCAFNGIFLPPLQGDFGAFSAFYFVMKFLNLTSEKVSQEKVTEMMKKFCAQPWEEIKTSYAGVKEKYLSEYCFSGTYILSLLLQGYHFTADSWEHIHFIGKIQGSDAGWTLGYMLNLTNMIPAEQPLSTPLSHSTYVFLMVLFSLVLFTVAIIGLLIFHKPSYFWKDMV

T4: CD39 mutant 3 (R118A, S119A, Q120K, Q122H, E123A) (human, UniProt P49961 1-510)
T4 construct: Transfected in HEK293T cells
T4 chain: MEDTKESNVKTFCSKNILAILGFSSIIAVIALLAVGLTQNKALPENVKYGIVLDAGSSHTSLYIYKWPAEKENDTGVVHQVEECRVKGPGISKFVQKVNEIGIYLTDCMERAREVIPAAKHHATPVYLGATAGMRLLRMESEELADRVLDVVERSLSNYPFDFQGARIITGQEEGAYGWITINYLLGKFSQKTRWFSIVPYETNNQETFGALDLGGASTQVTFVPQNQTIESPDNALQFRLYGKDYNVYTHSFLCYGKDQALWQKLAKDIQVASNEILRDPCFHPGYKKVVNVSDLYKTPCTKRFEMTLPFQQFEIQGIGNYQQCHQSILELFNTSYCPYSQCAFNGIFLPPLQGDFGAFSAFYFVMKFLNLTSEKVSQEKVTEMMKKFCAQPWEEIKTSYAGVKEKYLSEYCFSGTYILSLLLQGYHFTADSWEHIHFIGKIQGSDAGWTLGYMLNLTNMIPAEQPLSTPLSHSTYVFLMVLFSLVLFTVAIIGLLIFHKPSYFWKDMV

T5: vascular CD39 (Homo sapiens, UniProt P49961)
T5 construct: recombinant human CD39-M2 extracellular domain recombinant protein; made in house; host or cells: CHO cells (secreted, purified from supernatant)
T5 sequence (P49961 38-478 limits assumed): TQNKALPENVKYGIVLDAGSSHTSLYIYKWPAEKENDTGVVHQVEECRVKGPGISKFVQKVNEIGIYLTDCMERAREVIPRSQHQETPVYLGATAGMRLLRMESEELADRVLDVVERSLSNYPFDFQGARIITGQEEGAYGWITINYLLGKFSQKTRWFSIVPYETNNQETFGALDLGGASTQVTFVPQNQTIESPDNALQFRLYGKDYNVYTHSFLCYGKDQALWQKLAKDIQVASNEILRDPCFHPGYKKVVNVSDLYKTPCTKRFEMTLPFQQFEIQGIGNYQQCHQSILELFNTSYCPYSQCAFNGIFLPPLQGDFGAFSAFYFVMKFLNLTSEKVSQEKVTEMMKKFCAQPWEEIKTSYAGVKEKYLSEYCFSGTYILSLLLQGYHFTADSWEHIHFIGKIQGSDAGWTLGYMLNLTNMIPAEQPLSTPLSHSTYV


Legend:
[1] = target: T1, CD39 mutant 19 (R138A, M139A, E142K); assay: flow cytometry, HEK293T cells transfected with mutant 19
[2] = target: T2, CD39 mutant 5 (Q96A, N99A, E143A, R147E); assay: flow cytometry on transfected HEK293T cells
[3] = target: T3, CD39 mutant 2B (E110A, R113T, E114A); assay: flow cytometry, HEK293T cells transfected with mutant 2B
[4] = target: T4, CD39 mutant 3 (R118A, S119A, Q120K, …); assay: flow cytometry, HEK293T cells transfected with mutant 3
[5] = target: T5, vascular CD39; assay: ELISA titration on recombinant human CD39 isoforms; assay type: binding; conditions: recombinant protein coated
Procedure: Wells were washed in TBS Tween 20, and further saturated 2H at RT in TBS Blocking buffer. Dose range concentration of primary antibody was incubated in TBS blocking buffer for 2h at RT. Wells were washed in TBS Tween 20. […] Optical density was measured on Enspire at OD=450.

binding result [1] | binding result [3] | binding result [4] | binding to vascular CD39 [5] | Molecule | binding result [2]
binds | binds | binds |  | Antibody I-391, Fc silent recombinant chimeric human IgG1 with heavy chain N297Q mutation (antibody, V domains shown) VH: QIQLVQSGPELKKPGETVKISCKASGYTFRNYGMNWVKQAPGKGLKWMGWINTYTGEPTYADDFKGRFAFSLATSASTAYLQISNLKNEDTATYFCARKAYYGSNYYFDYWGQGTTLTVSS VL: DIVMTQSHKFMSTSVGDRVSITCKASQDVSTAVAWYQQKPGQSPKLLIYSASYRYTGVPDRFTGSGSGTDFTFTISTVQAEDLAVYYCQQHYTTPPYTFGGGTKLEIKR | no binding (tested: dose range 10 to 0.0006 µg/ml)
 |  |  | bound to the vascular CD39 | I-392: anti-CD39 antibody, VH SEQ ID NO: 8 and VL SEQ ID NO: 9, chimeric human IgG1 with N297Q mutation (antibody, V domains shown) VH: QIQLVQSGPEVKKPRETVKISCKASGYTFTHYGMNWVKQAPGKGLKWMGWINTYTGEPTYADDFKGRFAFSLEASASTAYLQINNLKNEDTATYFCARRRYEGNYVFYYFDYWGQGTTLTVSS VL: DIQMTQSPASLSASVGETVTITCRASENIYSYFSWYQQKQGKSPQLLVYTAKTLAEGVPSRFSGSGSGTQFSLKINSLQPEDFGSYYCQHHYVTPYTFGGGTKLEIK | 

From US20190153113A1, “CD39 VASCULAR ISOFORM TARGETING AGENTS” (INNATE PHARMA, priority 2015, published 2019)
